± gives the uncertainty stated by the source.
Assay: amyloid nucleation score (Sup35N fusion, yeast selection) (log enrichment); library NNK1; higher = more nucleation; inactive = no reads after selection
In short: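 The nucleation score equals the log enrichment of output over input reads from DiMSum, centred on the mode score of non-aggregating sequences. It was computed only for sequences with 100 or more input reads. The reads came from Illumina sequencing of plasmid inserts from psi-negative yeast expressing Sup35N fused to peptides of 20 random codons, induced with 100 μM copper sulfate for 24 hours and grown 7 days at 30°C without adenine and uracil.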

Point of comparison: STFCTSAISMSIGSIIVGLS, amyloid nucleation score 0.043 ± 0.62. Against it:
- SMYKMDMSLSTWCWFAWHDH — within error, -0.37 ± 0.45
- SNCGWRIFKEM — within error, -1.35 ± 2.1
- SNCRDKRFMY — within error, 0.637 ± 0.79
- SNFCDTCLKLRGNTCMASFT — within error, -0.259 ± 0.42
- SNFTEVLLSECFLVWLMFTH — within error, 0.089 ± 0.87
- SNGLGMVRDR — within error, -0.172 ± 0.67
- SNGMRRLTKVDEHSL — within error, 0.933 ± 0.54
- SNHQLEYRL — higher, 1.52 ± 0.55
- SNLDLHRSVLSRLGKYLDFP — higher, 5.35 ± 0.081
- SNLECV — within error, -0.019 ± 0.51
- SNMEYVMNEILVRLALPTSR — within error, -0.671 ± 1.5
- SNRFVPSNSSKVGSNVIDAK — within error, 0.386 ± 0.36
- SNRLLGVEAGVGCEIVKYNR — within error, -0.301 ± 0.38
- SNRNAGRKTMGHLWHQE — within error, 0.2 ± 0.42
- SNSLLQGVTIWPNYPLCGNL — within error, 0.464 ± 0.53
- SNTKIED — within error, 0.508 ± 0.59
- SNVFYVYRVVKSCIIFDSVL — higher, 2.6 ± 0.076
- SNWLFWFIKMGQFQDSICYA — within error, -0.616 ± 1.4
- SNYSQLLVMEVLHLGYTIRR — within error, -1.19 ± 0.91
- SPGFYLHGYQQNQHP — within error, 0.653 ± 0.68
- SPNLI — within error, 0.344 ± 0.9
- SPPLSASS — within error, -0.476 ± 1.9
- SPSES — within error, -0.31 ± 0.61
- SPVRIYTSRSIMRFNVRKPT — within error, -0.306 ± 0.9
- SPYGALFLDQLFYYQGADRG — within error, 1.05 ± 0.84
- SQCLMKGHCKT — within error, 0.286 ± 0.66
- SQIDYNDSCWNLGNP — within error, 0.164 ± 0.39
- SQLFYAILSIHYWCVTFFRC — within error, 0.642 ± 0.33
- SQPSMPNSVGGDTFG — within error, -0.658 ± 0.49
- SQRNLHTTYTYVAYRDYAER — higher, 0.957 ± 0.29
- SQWALKITFYKMVAL — within error, -0.171 ± 1.1
- SRAINVSVMWVRFS — higher, 2.81 ± 0.13
- SRGSVCIAMHLAC — within error, 0.001 ± 0.37
- SRGVAALYSSNI — within error, -0.278 ± 0.35
- SRIIGMSRCCIGHRYMYMKT — within error, -0.598 ± 1.4
- SRLGLSSDY — within error, 0.092 ± 0.33
- SRLTFVVVWDSSVVHIRMTG — higher, 3.46 ± 0.12
- SRLWVFD — within error, 0.314 ± 0.79
- SRMLPVMFSGP — within error, -1.06 ± 0.89
- SRVLSCEGWLK — within error, -0.051 ± 0.9
- SRYKTPSVDGVFCSALRGSG — within error, 0.301 ± 0.61
- SSCVRN — within error, -0.153 ± 0.57
- SSEDYALVLRSSGALVCSCL — within error, 0.418 ± 1
- SSETCTK — within error, -0.024 ± 0.55
- SSFDMRDILYLSSNILRSRM — within error, -0.505 ± 0.35
- SSFIAYASSDTWFTVKA — higher, 1.09 ± 0.36
- SSFRKTLLMVIYARNEGCMS — within error, 0.471 ± 0.97
- SSINMVVSPK — higher, 1.09 ± 0.3
- SSKEWLNADAVPGNGVEAIV — within error, -0.338 ± 0.53
- SSLPDAWVYLGSSWLEDHGR — within error, 0.461 ± 0.7
- SSLWTFTHRSKVGRYDFMAV — within error, -1.51 ± 1.1
- SSMGPFLSV — within error, 0.014 ± 0.48
- SSMSPTVYVVRR — within error, 0.163 ± 0.9
- SSMVVVGRRNLSDWKEYYPM — within error, -0.283 ± 0.45
- SSPKTRMVEGVCCYFVGSIY — within error, 0.704 ± 1.2
- SSRLLCYRSVGAFISVGNEV — within error, 0.675 ± 0.19
- SSRNDLDVQYLTVDQRPSMP — higher, 1.66 ± 0.56
- SSRYLSDSIKLAGWSIT — within error, -1.39 ± 2.4
- SSSFRCAFSSVA — within error, 0.994 ± 0.69
- SSSLSKLVFWKYFCIDEGLS — within error, 0.491 ± 0.53
- SSTRT — within error, 0.667 ± 0.97
- SSTSSRCHTSANLVRLVNGR — within error, 0.714 ± 0.33
- SSVFKRMWPLLFVIPRQMH — within error, 0.02 ± 0.43
- SSVGKLGDPWL — lower, -1.15 ± 0.53
- SSVKTVDLNCI — within error, -0.125 ± 0.37
- SSYGKFDGKCLQHM — within error, -0.157 ± 0.76
- STFAPNTSFGTIEIRFWICV — within error, -0.702 ± 1.1
- STIGNVY — within error, -0.586 ± 0.51
- STLSMTHVASAAVWRLVMPR — higher, 1.41 ± 0.48
- STLWKASVFKFCYICLYQQW — within error, 0.35 ± 0.95
- STMVCHDFLAMMGSCMGLCL — within error, -0.406 ± 0.96
- STNLLDFVGKSYVNWKKFRT — within error, 0.104 ± 0.42
- STSIDVWRSALLRVFGFTIY — within error, 0.171 ± 0.37
- STTSMPDWLNVWVSRSSSVV — higher, 1.06 ± 0.28
- STTVSIYWCRWGGSSLHDV — within error, 0.141 ± 1.4
- STWIHQMRSMASAENFSCYS — lower, -1.27 ± 0.63
- SVENNTAPICNTKSSVSDSL — within error, 0.852 ± 0.93
- SVFNGYQSLVICFLRVSACC — within error, 0.154 ± 1
- SVFRSSVCLLANDGVFSMNV — within error, 0.355 ± 0.39
- SVFSTEVCSTHAMILWKY — within error, 0.117 ± 1.4
- SVFWAWCVADHTIIDQKSSL — within error, 0.391 ± 0.48
- SVFYYILNPSEAVHEVSVTS — within error, -0.564 ± 0.48
- SVGDIFSMWSVCSSVNDRCK — within error, 0.415 ± 0.21
- SVHKSMKSDINMACHAKR — within error, 1.04 ± 0.6
- SVIFWMGRRMLLLACVPESA — within error, -0.128 ± 0.81
- SVKGLYLIDVLLSYGLTFGM — within error, -0.608 ± 0.53
- SVKTLLVRGILSLSIGFYMS — within error, 0.294 ± 0.52
- SVLSMLIWYKPHREGSLN — within error, 0.812 ± 1.1
- SVLWCPRCRYCKFAGVRTWK — within error, -0.398 ± 0.97
- SVMLLQLYMCLINFPNIPRT — higher, 1.6 ± 0.44
- SVRVI — within error, 0.105 ± 0.73
- SVRVMVLFWIKHCRLLWGRH — within error, -0.405 ± 1.7
- SVSLTNGVAEADKRYASAWL — within error, -0.093 ± 0.31
- SVTEVFYGKSVFLTFVFGIF — within error, 0.292 ± 0.31
- SVTRHALSNRSNGKIADCC — within error, -0.306 ± 0.56
- SVVRTMSLLATFLRV — within error, -0.795 ± 1.6
- SVWIKSST — within error, -0.285 ± 1.4
- SVYRSVRGNRCWGLKIIMPG — within error, -0.101 ± 1.1
- SVYSVAFR — within error, 0.184 ± 0.78
- SVYTNVLDTTNQGTKQNGPR — within error, 1.01 ± 0.47
- SWDPNVSFALL — higher, 2.93 ± 0.25
- SWFKSWSPKALSARIGRVYL — within error, -0.176 ± 0.55
- SWFSRMGTCYDFNSKWSCLL — within error, 0.654 ± 0.66
- SWIANRRRFAL — higher, 3.64 ± 0.15
- SWLDLNLIDHQAFAFSSFGL — within error, -0.043 ± 0.45
- SWMKSLLFVFGLTCQMRECV — within error, -0.544 ± 0.61
- SWQAVCAMSCCLW — higher, 8.628 ± 0.051
- SWQPECCTVQTLSSKSEISH — within error, -0.158 ± 1.6
- SWRFDCYDRTWYNMYLEHLS — within error, 0.232 ± 0.23
- SWRLRIIGEWRAFGDNMDSR — higher, 2.75 ± 0.15
- SWYLMIKVIETVSGVTGWVG — higher, 2.39 ± 0.12
- SWYVVG — within error, -0.373 ± 0.97
- SYDSRNASLVIIISWVMQPL — higher, 0.992 ± 0.16
- SYFRFVLYN — within error, 0.052 ± 1.1
- SYGLCMMAFLSLDAS — within error, 0.517 ± 0.28
- SYGWCCTNYNSFVWTYPLTK — higher, 5.79 ± 0.06
- SYGYSMLAGVWT — within error, 0.057 ± 1.1
- SYLGTHRFTECILDRVCTLQ — within error, 0.125 ± 1.4
- SYLKS — within error, -0.4 ± 0.63
- SYNDQSVAYCVLIAETVWYC — higher, 7.742 ± 0.055
- SYPSGVLDSNNPVLARGLAQ — within error, -0.227 ± 0.41

In the case of SNESILFVGSPVTRFIQYVD, the amyloid nucleation score is reported as “inactive”.
With SPESRRQWCL the amyloid nucleation score was “inactive”.
For SRLWSSCHCHLAAYSVIHDD, the amyloid nucleation score was “inactive”.
For SSIVKYSCLVVFFQRNHVIP, the amyloid nucleation score was “inactive”.
In the case of SVGQRSRAEPDVKLCSGNLG, the amyloid nucleation score is reported as “inactive”.
With SWWEFECETS the amyloid nucleation score was “inactive”.

— the supplement of paper PMC12042874
